{"source": "paper PMC4337726", "about": "“A molecular basis for the differential roles of Bub1 and BubR1 in the spindle assembly checkpoint” (eLife, 2015)", "molecules": {"B1": {"name": "H6-TRX-BubR1^362–571 (domain or fragment, human, UniProt O60566 362-571, looked up)", "chain": "INHILSTRKPGKEEGDPLQRVQSHQQASEEKKEKMMYCKEKIYAGVGEFSFEEIRAEVFRKKLKEQREAELLTSAEKRAEMQKQIEEMEKKLKEIQTTQQERTGDQQEETMPTKETTKLQIASESQKIPGMTLSSSVCQVNCCARETSLAENIWQEQPHSKGPSVPFSIFDEFLLSEKKNKSPPADPPRVLAQRRPLAVLKTSESITSNE", "notes": "source: insect cells, baculovirus, purified (TALON, SEC)"}}, "key": {"Apc7": {"target": "Apc7", "assay": "co-immunoprecipitation (anti-GFP IP), quantified Western blot", "details": "mitotic Flp-In T-REx cell lines; mean of two independent experiments; parent: 1.0; read off a plot"}, "Bub3": {"target": "Bub3 (UniProt O43684)", "sequence (O43684 whole entry)": "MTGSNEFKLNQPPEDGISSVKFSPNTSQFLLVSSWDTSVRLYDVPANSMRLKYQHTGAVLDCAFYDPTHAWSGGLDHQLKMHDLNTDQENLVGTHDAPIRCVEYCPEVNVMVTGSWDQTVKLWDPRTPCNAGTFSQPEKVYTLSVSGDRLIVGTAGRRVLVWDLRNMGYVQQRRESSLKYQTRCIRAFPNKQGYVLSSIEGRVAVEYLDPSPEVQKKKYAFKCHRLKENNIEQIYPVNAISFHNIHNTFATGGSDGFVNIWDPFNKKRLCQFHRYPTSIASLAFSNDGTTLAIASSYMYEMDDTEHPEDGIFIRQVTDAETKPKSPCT", "assay": "co-immunoprecipitation (anti-GFP IP), quantified Western blot", "details": "mitotic Flp-In T-REx cell lines; mean of two independent experiments; parent: 1.0; read off a plot"}, "Cdc20": {"target": "Cdc20 (UniProt Q12834)", "sequence (Q12834 whole entry)": "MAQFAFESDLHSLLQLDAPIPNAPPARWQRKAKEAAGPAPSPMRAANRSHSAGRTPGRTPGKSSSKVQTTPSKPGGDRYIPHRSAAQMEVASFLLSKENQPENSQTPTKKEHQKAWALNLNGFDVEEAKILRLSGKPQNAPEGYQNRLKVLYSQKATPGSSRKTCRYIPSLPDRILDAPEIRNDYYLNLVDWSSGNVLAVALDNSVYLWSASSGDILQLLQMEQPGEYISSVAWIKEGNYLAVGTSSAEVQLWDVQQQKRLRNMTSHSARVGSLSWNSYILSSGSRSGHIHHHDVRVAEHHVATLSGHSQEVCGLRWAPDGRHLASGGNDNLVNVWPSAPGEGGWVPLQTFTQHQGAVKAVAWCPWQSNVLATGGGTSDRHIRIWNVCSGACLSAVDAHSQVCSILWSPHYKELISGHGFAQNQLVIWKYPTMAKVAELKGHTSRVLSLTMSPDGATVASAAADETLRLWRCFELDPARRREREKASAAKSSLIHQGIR", "assay": "co-immunoprecipitation (anti-GFP IP), quantified Western blot", "details": "mitotic Flp-In T-REx cell lines; mean of two independent experiments; parent: 1.0; read off a plot"}, "Cdc27": {"target": "Cdc27", "assay": "co-immunoprecipitation (anti-GFP IP), quantified Western blot", "details": "mitotic Flp-In T-REx cell lines; mean of two independent experiments; parent: 1.0; read off a plot"}, "Mad2": {"target": "Mad2 (UniProt Q13257)", "sequence (Q13257 whole entry)": "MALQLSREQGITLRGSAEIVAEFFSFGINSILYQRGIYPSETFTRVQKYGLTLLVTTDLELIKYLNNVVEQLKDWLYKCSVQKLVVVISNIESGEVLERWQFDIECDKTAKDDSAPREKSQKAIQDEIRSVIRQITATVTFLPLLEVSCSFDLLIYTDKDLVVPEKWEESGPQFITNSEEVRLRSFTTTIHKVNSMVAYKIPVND", "assay": "co-immunoprecipitation (anti-GFP IP), quantified Western blot", "details": "mitotic Flp-In T-REx cell lines; mean of two independent experiments; parent: 1.0; read off a plot"}, "[1]": {"target": "anaphase promoting complex/cyclosome, P30260;Q9UJX3", "assay": "co-immunoprecipitation (anti-Cdc27 IP), quantified Western blot", "details": "mitotic Flp-In T-REx cell lines; mean of two independent experiments; parent: 1.0; read off a plot"}, "H6-Bub1^1–409/Bub3": {"target": "T1, H6-Bub1^1–409/Bub3 (human | , UniProt O43683 1-409; O43684 1-328)", "T1 construct": "Bub3, co-expressed, untagged or as Bub3-TRX; source: insect cells, co-infection and co-expression, purified (HisTrap, S200 SEC); not shown: H6, N-terminal, kept", "T1 sequence (O43683 1-409, chain 1 of 2)": "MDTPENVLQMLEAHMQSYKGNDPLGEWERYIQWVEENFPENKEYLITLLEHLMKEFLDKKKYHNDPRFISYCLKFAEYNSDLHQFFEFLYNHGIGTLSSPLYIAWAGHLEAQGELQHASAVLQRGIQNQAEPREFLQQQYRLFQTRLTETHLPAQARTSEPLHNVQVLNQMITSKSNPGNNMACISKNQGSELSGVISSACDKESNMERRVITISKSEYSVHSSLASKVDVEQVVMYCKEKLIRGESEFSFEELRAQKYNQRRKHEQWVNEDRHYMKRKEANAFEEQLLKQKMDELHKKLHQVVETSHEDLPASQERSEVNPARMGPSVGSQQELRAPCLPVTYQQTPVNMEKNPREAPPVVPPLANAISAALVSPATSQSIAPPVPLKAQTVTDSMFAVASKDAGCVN", "T1 sequence (O43684 whole entry, chain 2 of 2)": "as the sequence (O43684 whole entry) above", "assay": "SEC; mobility shift; proteins at 15 µM, 1 hr at 20–22°C in 50 mM Tris–HCl pH 8, 150 mM KCl, 1.5 mM TCEP, 0.05% Tween20; Superose6 10/300; SDS-PAGE of fractions", "details": "both partners purified"}, "H6-Bub1^209–409-MBP/Bub3": {"target": "T2, H6-Bub1^209–409-MBP/Bub3 (human | , UniProt O43683 209-409; O43684 1-328)", "T2 construct": "Bub3, untagged, co-expressed; source: insect cells, co-expressed, purified (TALON, SEC); not shown: H6, N-terminal, kept; MBP, C-terminal, kept", "T2 sequence (O43683 209-409, chain 1 of 2)": "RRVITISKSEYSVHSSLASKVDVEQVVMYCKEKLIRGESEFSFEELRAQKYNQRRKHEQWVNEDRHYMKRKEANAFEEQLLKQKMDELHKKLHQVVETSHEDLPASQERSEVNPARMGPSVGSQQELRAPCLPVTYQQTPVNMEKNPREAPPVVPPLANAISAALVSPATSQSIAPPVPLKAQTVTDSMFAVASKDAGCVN", "T2 sequence (O43684 whole entry, chain 2 of 2)": "as the sequence (O43684 whole entry) above", "assay": "SEC; mobility shift; proteins at 15 µM, 1 hr at 20–22°C in 50 mM Tris–HCl pH 8, 150 mM KCl, 1.5 mM TCEP, 0.05% Tween20; Superose6 10/300; SDS-PAGE of fractions", "details": "both partners purified"}}, "data": [{"molecule": "GFP-BubR1 wild type, full length (from UniProt O60566) B1-loop", "values": [{"measurement": "ratio to parent", "setting": "Apc7", "result": 0.08}, {"measurement": "ratio to parent", "setting": "Bub3", "result": 1.1}, {"measurement": "ratio to parent", "setting": "Cdc20", "result": 0.12}, {"measurement": "ratio to parent", "setting": "Cdc27", "result": 0.06}, {"measurement": "ratio to parent", "setting": "Mad2", "result": 0.12}, {"measurement": "ratio to parent", "setting": "[1]", "result": 0.15}]}, {"molecule": "B1", "values": [{"measurement": "binding result", "setting": "H6-Bub1^1–409/Bub3", "result": "binds"}, {"measurement": "binding result", "setting": "H6-Bub1^209–409-MBP/Bub3", "result": "binds"}]}]}
